Results as given in the DeepSol protein solubility set.

Test: soluble on expression in E. coli; label from the status in PepcDB or PDB records

Row | Sequence | soluble on expression in E. coli
1 | MSLDQPVVGLITKTDTNPFFVKMKQGAEAAASKDGAKLITAAGKFDGDNASQVTAIENMMTAGAKAILITPSDTKAIVPSIKKARAAGVMVVALDTPTDPQDATDALFATDNFKAGVLIGKYAKAALNGKPAKIATLDLAPGVSVGVLRHNGFLEGFGVKEGDPSVVCSQDTRGDQAKGQTAMENCLQKSPDINVVYTINEPAAAGAYRALKAAGKDKSVMIVSIDGGCEGVRNVKAGAIAATSQQYPLKMASLGVTAGVEYAKTGKKVSGYQDTGVTLITDKPMAGIDSKDTKFGLDNCWGNEGHHHHHH | soluble
2 | MAKTGMYVGLDIGTTSVKVVVAEYIEGQMNIIGVGNAKSDGLNRGIVVDIDQTVQAIQRAVRQAEEKAGIQIKSVNVGLPANLLEVESCQGMIAVSSESKEITDEDVRNVASAALVRSTPPERQIVAILPQDFTVDGFEGIKDPRGMLGVRMEMFGVVYTGPKTIIHNIRKCVEKAGLGINELVITPLALTETILTDGEKDFGTIVIDMGGGQTTTSVIHDKQLKFTHVNQEGGEFITKDISIVLNTSFNNAEALKINYGDAYPERTSANEEFPVDVIGKSEPVRVDERYLSEIIEARVEQILRKSKEVLDEIDAFELPGGVVLTGGAASMPGIVDLAQEIFEANVKLYVPNHMGLRNPVFANVISIVEYSAQLNDIYHIAKYAIPGEKSKPAQSVAVQQEVRYDTYAEQPQEEYEEFNERESGEKVTGKIKDFFSNIFD | not soluble
3 | MNMPMTERIRAGKLFTDMCEGLPEKRLRGKTLMYEFNHSHPSEVEKRESLIKEMFATVGENAWVEPPVYFSYGSNIHIGRNFYANFNLTIVDDYTVTIGDNVLIAPNVTLSVTGHPVHHELRKNGEMYSFPITIGNNVWIGSHVVINPGVTIGDNSVIGAGSIVTKDIPPNVVAAGVPCRVIREINDRDKHYYFKDYKVESSV | soluble
4 | GMDAGRGAEHDEAVTSDDSASVEVPRRATPADAATVAQMLHDFNTEFGAPTPGTDELASRLSHLLAGEDVVVLLAGEPPTGLAVLSFRPNVWYPGPVAILDELYVRPGRRGHRLGSALLAASCGLVRSRGGALLEINVDGEDTDARRFYEARGFTNTEPNGTEPMLYYYREL | soluble
5 | MGSDKIHHHHHHAPKKKEEPSPEASSSKRPFRVCLNVSTIAGYKLPVQKQIDLCAEAGFEGIELWTRDVDAFVKQGGTYETLRRQLEGSGLLLENMIGFASWFADDLSKRKEGLNQMRHDMEMVAGLGGKFIAAPAQGVTQLDRTRLPEYSERYRAILDLGDEMGVTPILELWGAGILNQLSDTMAIAIASGHSRASVLLDFYHLYRGGNSFDSLRLINGKILPVFHINDYPELPPRTELRDSDRVFPGDGICPFNKVLPLLYDSGFRGGLSVELFNKGYWETMDVKEVLKKSFEKTTQVINSSMG | not soluble
6 | HHHHHHMSKRETFNETFLKAARGEKADHTPVWYMRQAGRSQPEYRKLKEKYGLFEITHQPELCAYVTRLPVEQYGVDAAILYKDIMTPLPSIGVDVEIKNGIGPVIDQPIRSLADIEKLGQIDPEQDVPYVLETIKLLVNEQLNVPLIGFSGAPFTLASYMTEGGPSKNYNKTKAFMYSMPDAWNLLMSKLADMIIVYVKAQIKAGAKAIQIFDSWVGALNQADYRTYIKPVMNRIFSELAKENVPLIMFGVGASHLAGDWHDLPLDVVGLDWRLGIDEARSKGITKTVQGNLDPSILLAPWEVIEQKTKEILDQGMESDGFIFNLGHGVFPDVSPEVLKKLTAFVHEYSQNKKMGQYS | soluble
7 | AQGQTVYFHAWGGSQEINHYLQWANKELQSKYQVTLKHVKVSDISETIPRLIAEKAADKNTNGSVDMVWINGENFKSMKDNQLLFGPFTENLPSWKYVDKMLPIDVDFSEPTDGLEAPWGVGQLVFIHDSENLTNPPHSFAEMLSYAQKKPNSLSYPRPPEFHGTSVLKSMLIELTNNNPALQKPVSESDFNAVTAPLWDYLEKFHKVAWRGGKQFPAGTSETIQLLDDGQLDLAVTFNPNAVYSAQANGNLANTTKAYAMDSGALSNIHFLAIPWNAKASAGAQVAINFLLSPEAQSRKGDLNVWGDPSVLSSKYLTGSAKNTQQFKSVSEPHPSWQAAIEKEWLKRFGS | not soluble
8 | MGSDKIHHHHHHMIIEHARDMLKRERLFFDKIQAHIGEVNGTISIGCSSLIGQTLLPEVLSLYNSQFPNVEIQVQVGSTEQIKAHHRDYHVMITRGNKVMNLSNTHLFNDEHYFIYPKDRKEDVTKLPFIEFQADPIYINQIKQWYNDHLGHDYHATITVDQVATCKEMLLSGVGVTILPKIMMKNIDKNMFEFEKVTIDKKPLIRSTYMSYDASMLQLPQVDAFVNLMLNFIR | not soluble
9 | MILGEIMEVLAFKNQSLIDHVNDMVKYWERIKYRYLKTIKRALEALNIKLDIEKVDEFMKILIKLHDIGKASKIYQRAIINDQEKLMGFRHELVSAYYTYHILLKKFGDKNLAFIGALTVMLHHEPIIMGQIRNLKKKELTAEVVLDKLKKFDGMIEDFEDLIKKLIGYSIGDIIKNDSNKDDIIRFVIEMSVRARHTPNSEKLRFIVGTLLLPLVMCDYKGAESREGKAPKFAEVLEVESYVI | soluble
10 | MDVQQRLGGLLEITESRICLHCLGRHFVDLVEGPGNRLRGEKLQKKFSLKLSGPCMICGDVFDRIDEAAGMVKEKVDELGLEYSSVLVGTRLPPKMVELDDEIRKRLGIQTEGLKRDLNRELGKRVVKLLGCSAEFEDPDLVVMVDFRGDIRVWIQINPLFLEGRYRKLVRGIPQTRWPCRKCRGRGCERCNYTGKMYPTSVEELIAGPILEASQGRDARFHGSGREDVDVRMLGTGRPFVLEIREPRVRNLDPESLEEEVNRRAQGMVEVEGLRFSTRKRKVELKDSSQSRYKVYRALVELDGDVTDEDLERLGSLDIIKQRTPVRVSHRRADRVRERRVLEISWNLLDGCLELIIKGEGGLYIKELISGDSGRTEPSVSSVLGVPARCVALDVLEVGDEPSEKDLEHHHHHH | soluble
11 | MTTTPTLEVYLQPEQLKAALRKDATVGLTSNPKWLPPKYFYDARGSELFEQITALPEYFPTRTERELLRRYSGEIAEVTAPEILVELGSGSSEKTRLLLGAATRHGSLHTYVPQDVSVSALEGAAEQIGVEFPHLTVRGVVSDFTESLHHLPRGGRRTIAFLGGTLGNMVPAERAEFLSGIADVLEPGEHLLLGVGLVIDPAVLVPAYDDAAGVTAQFNRNVLQVLNTQLDADFPVDEFRHVALWDADNEWIEMRLEAERAMSIRVGELDLDVEFTAGEQLRTEISAKFTLDGIRRELAEAGFDVERTWTDPDDRFALVCAARN | soluble
12 | SGDVLWDIPTPKIIEECEHLEDGIYGIFQSTFLGASQRGVGVAQGGVFHTMWHVTRGAFLVRNGKKLIPSWASVKEDLVAYGGSWKLEGRWDGEEEVQLIAAVPGKNVVNVQTKPSLFKVRNGGEIGAVALDYPSGTSGSPIVNRNGEVIGLYGNGILVGDNSFVSAISQTEVKEEGKEELQEIPTMLKKGMTTVLDFHPGAGKTRRFLPQILAECARRRLRTLVLAPTRVVLSEMKEAFHGLDVKFHTQAFSAHGSGREVIDAMCHATLTYRMLEPTRVVNWEVIIMDEAHFLDPASIAARGWAAHRARANESATILMTATPPGTSDEFPHSNGEIEDVQTDIPSEPWNTGHDWILADKRPTAWFLPSIRAANVMAASLRKAGKSVVVLNRKTFEREYPTIKQKKPDFILATDIAEMGANLCVERVLDCRTAFKPVLVDEGRKVAIKGPLRISASSAAQRRGRIGRNPNRDGDSYYYSEPTSENNAHHVCWLEASMLLDNMEVRGGMVAPLYGVEGTKTPVSPGEMRLRDDQRKVFRELVRNCDLPVWLSWQVAKAGLKTNDRKWCFEGPEEHEILNDSGETVKCRAPGGAKKPLRPRWCDERVSSDQSALSEFIKFAEGRR | soluble
13 | MFDYSAHPELLKGRVILVTGAARGIGAAAARAYAAHGASVVLLGRTEASLAEVSDQIKSAGQPQPLIIALNLENATAQQYRELAARVEHEFGRLDGLLHNASIIGPRTPLEQLPDEDFMQVMHVNVNATFMLTRALLPLLKRSEDASIAFTSSSVGRKGRANWGAYGVSKFATEGLMQTLADELEGVTAVRANSINPGATRTGMRAQAYPDENPLNNPAPEDIMPVYLYLMGPDSTGINGQALNAQ | soluble
14 | MGSDKIHHHHHHMDDGYIAEFALYRSLMKNLPWDTYQLFIDVARNGGLTGAVQSTGLSAATLGRRMVELEQKLGRILFHRAQTGYTLTVDGRALLDHLKSFEAAERGIDLWRQQTSQPALVRVTAGTWISWLIAQNLPKLCRSNDRFRLDLHITEERAALAHRETDIGIRAFEPQESNLARVPLGEVAYAAYRHRLADELEGQPWIAVAQDAAISAYLKWPHQHKAEQILITVNRPRSLKDMAVSGMGLAVLPCFVGDSHPQLQRVGDEITELRHRQWLVTNNDDRHRSEIRDCAGRLVTLMRDFSDAFAGRR | not soluble
15 | MAHHHHHHMIPKESMNVDQSRYETQEGTIVENKLTPFLELTSGEIPMWVKQKYLLSPIDTSKYSDDFYKLGPDDFGKLSGEQVKPDLIKSKLPSSVLHKIWNLADITKDGYLDLFEYSLARHFIEMKTEGFDLPTKVPKDIINSHEY | soluble
16 | MLAYQGTQIKEKRDEDAGFDLCVPYDIMIPVSDTKIIPTDVKIQVPPNSFGWVTGKSSMAKQGLLINGGIIDEGYTGEIQVICTNIGKSNIKLIEGQKFAQLIILQHHSNSRQPWDENKISQRGDKGFGSTGVF | soluble
17 | MGSDKIHHHHHHMQVPSGAADLPEQMGTKAKFWFDDSRRLFKEGRPGTGENWAEVIAAELAALLGLPHATYSLAEYEGRRGVVTESFVPSGARLILGNELIGFAARETVSRHTRGQAHTIGRLSSLLNRPQVALPSGWVSPTSFFNAADVMSGYLLLDALIANQDRHEENWGLINSHGAIYLAPTFDHASSLGRNETDQRRIQKLDANHPDHGVLGYARRAKVPIYDGMGPLQSGEAFFAFARSCPDKGAYWLNRLHELDPSSFLALLNRIPVGWITDPARRFAAELLKVNRDRLLDEK | not soluble
18 | MTTPAPVPRITVLLPVYNGEQYLREALDSLLTQTYRNFSLLAVDDGSTDSSLEILRSIKDPRLSVKVNPRNRGLINTLNESLDLIQSEYVARMDADDIATPYRLEEQLAFMDAHPDVGLCGGYYERFTDTESIVVRPPTTHEDISYALIFDNVMAHNTVMFRRSVLERYRLRYDPAFAYAEDYELWVRFARYSRLANLPRVLVRYRFHPANTSSRFRHEQQIAAAKIRHIHRTNLGLEPRPGDAALHRQLFDMRFEGDLPELTAAGIWLSKLYRVGVRRCRQNPVSTFLEFNKLWYSACGRLADHGLKVFAQFLRQPFGFLGNPAYTLKLAYRCWRRIRIALEHHHHHH | not soluble
19 | MPHLFYGTAQNGEVIFDEREAHHMRVVRLKEGDVIEATDGNGFSYTCILKSLKKKTAAAKIVKVEEKEKEPTEKLSVVVPIGRWERTRFLIEKCVELGVDEIFFHKFERSQHEISLDKAKIVVREAAKQCKRYLFPKVSFLEKLEFSGNVITLDLDASQNLLDANLEGSITVVVGPEGGFSEKERELLRSSTTIVSLGKKILRFETAAILTVGYIALKKQKI | not soluble
20 | MRFTKTLFTTALFGASVFSFQSTAWADTLEQQFQQGSEATTRGDYQTTFKFLLPLAEQGNALAQMMLGVMYAKGQGVKQDDVEAVKWYRKAAEQGYADAQAMLGFSYLLGQSGVQVNKSLAKEWFGKACDNGDQNGCEYYGKLNRGEL | not soluble
21 | KVVFAKEQPAHREVQAEAGASATLSCEVAQAQTEVTWYKDGKKLSSSSKVRVEAVGCTRRLVVQQAGQAEAGEYSCEAGGQQLSFRLQVAGQCFG | soluble
22 | MATQRAHRAETPAHPNRLWIWEKHVYLDEFRRSWLPVVIKSNEKFQVILRQEDVTLGEAMSPSQLVPYELPLMWQLYPKDRYRSADSMYWQILYHIKFRDVEDMLLELIDSESNDE | soluble
